Data reported in paper PMC6312923 (Life Science Alliance, 2018).

Experiments:
[1] = tested on: HEK293 cells, UV-irradiated sites; test: Recruitment of FLAG-Cdt2 to UV-irradiated (XPA) sites in HEK293 cells; type: cell-based, human; details: stable HEK293 cells, XPA-positive spots
Method: Figure 6. The Cdt2 PIP box is important for its recruitment to DNA damage sites and replication foci and for poly-ubiquitination activity. (A) HEK293 and stable Cdt2^WT or Cdt2^PIP-3A cells were locally UV irradiated, and stained for XPA and FLAG (Cdt2). XPA-positive spots were examined for FLAG signal, and its frequency was counted (%). More than 50 spots were examined. bar:10 μm. […] Bar: 10 μm. […] (D) Whole-cell extracts were prepared from HEK293 and stably transfected cells of Cdt2^WT or Cdt2^PIP-3A cells, separated into soluble (Sup) and chromatin-containing insoluble (Ppt) fractions, and were examined for indicated proteins. The asterisk indicates nonspecific bands. (E) HEK293 and stably transfected cells of Cdt2^WT or Cdt2^PIP-3A were treated with MG132 for 3 h. […]
For Western blotting, whole-cell lysates were prepared by lysing cell pellets directly in SDS–PAGE buffer. […] Protein levels were analysed by ImageJ software.
We used a method to induce DNA photoproducts within localized areas of the cell nucleus as described in Ishii et al (2010). […] UV irradiation was achieved using a UV lamp (SUV-16, As One, Japan) with a dose rate of 0.4 J/m^2·s, which was monitored with a UV radiometer (UVX Radiometer, UVP) at 254 nm, or with a UV box equipped with a UV-C lamp monitored with a VLX-3W radiometer (Vilber Lourmat) at 254 nm (CX-254 sensor). […]

[2] = tested on: Cdt2 poly-ubiquitination; test: Poly-ubiquitination of Cdt2 itself on chromatin in HEK293 cells; type: cell-based, human; details: HEK293, MG132 3 h
Method: Figure 6. The Cdt2 PIP box is important for its recruitment to DNA damage sites and replication foci and for poly-ubiquitination activity. (A) HEK293 and stable Cdt2^WT or Cdt2^PIP-3A cells were locally UV irradiated, and stained for XPA and FLAG (Cdt2). XPA-positive spots were examined for FLAG signal, and its frequency was counted (%). More than 50 spots were examined. bar:10 μm. […] Bar: 10 μm. […] (D) Whole-cell extracts were prepared from HEK293 and stably transfected cells of Cdt2^WT or Cdt2^PIP-3A cells, separated into soluble (Sup) and chromatin-containing insoluble (Ppt) fractions, and were examined for indicated proteins. The asterisk indicates nonspecific bands. (E) HEK293 and stably transfected cells of Cdt2^WT or Cdt2^PIP-3A were treated with MG132 for 3 h. Whole-cell extracts (WCE) were prepared, separated into soluble (Sup) and insoluble (Ppt) fractions, and blotted with the indicated antibodies.
To consider this possibility, asynchronously growing control HEK293 cells and cells expressing Cdt2^WT or Cdt2^PIP-3A were treated with proteasome inhibitor MG132 and the levels of poly-ubiquitinated Cdt1 were examined. […] Cdt2^PIP-3A-expressing cells however had reduced level of both poly-ubiquitinated Cdt1 and p21 on chromatin.

B1: Cdt2^PIP-3A: Cdt2 with I709, Y712, and F713 all mutated to alanine (protein, UniProt Q9NZJ0 1-730, looked up, variant I709A Y712A F713A)
Denticleless protein homolog: MLFNSVLRQPQLGVLRNGWSSQYPLQSLLTGYQCSGNDEHTSYGETGVPVPPFGCTFSSAPNMEHVLAVANEEGFVRLYNTESQSFRKKCFKEWMAHWNAVFDLAWVPGELKLVTAAGDQTAKFWDVKAGELIGTCKGHQCSLKSVAFSKFEKAVFCTGGRDGNIMVWDTRCNKKDGFYRQVNQISGAHNTSDKQTPSKPKKKQNSKGLAPSVDFQQSVTVVLFQDENTLVSAGAVDGIIKVWDLRKNYTAYRQEPIASKSFLYPGSSTRKLGYSSLILDSTGSTLFANCTDDNIYMFNMTGLKTSPVAIFNGHQNSTFYVKSSLSPDDQFLVSGSSDEAAYIWKVSTPWQPPTVLLGHSQEVTSVCWCPSDFTKIATCSDDNTLKIWRLNRGLEEKPGGDKLSTVGWASQKKKESRPGLVTVTSSQSTPAKAPRAKCNPSNSSPSSAACAPSCAGDLPLPSNTPTFSIKTSPAKARSPINRRGSVSSVSPKPPSSFKMSIRNWVTRTPSSSPPITPPASETKIMSPRKALIPVSQKSSQAEACSESRNRVKRRLDSSCLESVKQKCVKSCNCVTELDGQVENLHLDLCCLAGNQEDLSKDSLGPTKSSKIEGAGTSISEPPSPISPYASESCGTLPLPLRPCGEGSEMVGKENSSPENKNWLLAMAAKRKAENPSPRSPSSQTPNSRRQSGKKLPSPVTITPSSMRKACTAAHRKSQEDFCGPEHSTEL
modifications: FLAG tag
notes: Cdt2 with I709, Y712, and F713 all mutated to alanine
recruitment to UV-irradiated sites [1]: not recruited to UV-irradiated sites
poly-ubiquitination of Cdt2 on chromatin [2]: severely reduced
